{"source": "the DeepSol protein solubility set", "data": [{"assay": "soluble on expression in E. coli; label from the status in PepcDB or PDB records", "values": [{"sequence": "MGSDKIHHHHHHMNKLEERSQHRKSRFRFLVISTFWRVLLLLKNDAEPLFHLGNIHYAYGHKASAMNYWKEAVSKNREHEKAWHNLVQCAVIQEEWEQAAEGLTILCRNHPTRFEYMSLYTHALKKLGKKEELEEWYLSHINGPHHEWAIEGLGMLYIRTRREIDAFKLLSPFVRKFPNRPVGLKILGISSIRTNQYEAGLTFLEKSLELKEDKEVKSLVDRVKRLKKVRGGNR", "soluble on expression in E. coli": "not soluble"}, {"sequence": "MGSDKIHHHHHHMYLLDSAIAKQIVSRTMKIIGHNINVMNGQGMILGSGDPKRIGSIHEGALLAIAQNRNVEISQEVAASLHGVKPGINLPLHYQGQIIGVVGITGDPNELTHYGELLKMTAEMIVEQANLQDKLQWENRQREEFILQLIKAETDDRQLHRWAKQLDIDMSMPRVAAIIEISEKSTPIKIPKRPSDPLAIDLADTLQVNASDDRNHRVGETLKQVLHLLQYPDRGNLIAMTSMSQLVILKPAFLDGKQWDPELENQRIDRLLQRLPAQMNLNFKIALGHFFPENGGIARSYQTALETLALGKQLNPEGNKYLFEDYSLQVLLSGLKYDWRGQALAMPYQQLAKADKNGQLRKTLAAYITHFGDAQQCANTLFIHRNTLRYRLDKIQQITQADIQSLHGLLSLYLGQLIDSSKNTG", "soluble on expression in E. coli": "not soluble"}, {"sequence": "MAHHHHHHMEHLSVTKNSQMNNLAAYNNQEANYSLAAPNQEEYSENDLFYTFYDKFNEIFLFIQNLKENKNDLEDEVDDNLIKTLHNLCLEFLNYIKQINDFGHMNLSKNDQDLIIESYEKFVRQCKQYNDKPQVKQLENEISNLLDLLFNNTSGRHNSWRSGKKRKKREKEKKKLISPP", "soluble on expression in E. coli": "soluble"}, {"sequence": "MSGFFQRLFGKDNKPAIARGPLGLHLNSGFTLDTLAFRLLEDELLIALPGEEFTVAAVSHIDLGGGSQIFRYYTSGDEFLQINTTGGEDIDDIDDIKLFVYEESYGISKESHWREAINAKAMGAMTLNWQEKRWQRFFNSEEPGNIEPVYMLEKVENQNHAKWEVHNFTMGYQRQVTEDTYEYLLLNGEESFNDLGEPEWLFSRALGVDIPLTSLHIIG", "soluble on expression in E. coli": "not soluble"}, {"sequence": "MITIKFDLNRYSCSWGAGGAFGGNRGLRPIPPEKGIFPLDHLHECDAVFFNKRFFL", "soluble on expression in E. coli": "not soluble"}, {"sequence": "GPLGSSIMKILLIGDSGVGKSCLLVRFVEDKFNPSFITTIGIDFKIKTVDINGKKVKLQLWDTAGQERFRTITTAYYRGAMGIILVYDVTDERTFTNIKQWFKTVNEHANDEAQLLLVGNKSDMETRVVTADQGEALAKELGIPFIESSAKNDDNVNEIFFTLAKLIQEKIDSN", "soluble on expression in E. coli": "soluble"}, {"sequence": "EIINEEGKLERKADMFTRRTIQTHRAVTSVDTAVEALAVSIGEKACVDLGYMASLMGGPEKIPQIVEDLKGIIFKNPATGPFDLEDGGAHWHQGWQTADEYLSGNVRAKLAIARAAAEENPQFAINAEKLEQVQPKDLTASEISVRIGASWIDPEYYQQFMFELLHTPVYLQDRKIKLQYSPTTGEWNVQGKSTDNRDNVRVYATYGTKRINAYEIFEQTLNQRDVRIFDKTEVDGKEVRVLNEKQTAIAQQKQEAMCETFKDWIFKDPERRETLCRRYNEKFNCIRPREYDGSHIRFAGMNPEISLRTHQ", "soluble on expression in E. coli": "not soluble"}, {"sequence": "MGSDKIHHHHHHMKLEFTCGEEITIKEVNKLKLELMTSGKGDVEKELERLKKNKNKVHDIKTEETIDLLDRCAKLWLDDNYSKKHIETLAQITNQSFELVNYEFKSMMQMLLRENIQNTIKRELGEVDILDSWHKTNYGYEHRQPRGIIFHNISGNAFVVIPMSISMGLLSKNCNLVKVSKDEPYFAYAFYKSLCELDETVKDRLSVLYFDSSKTEIYDTIVKNSDGVIHWGGEYSSRIIGEMCAKYQKHMIMHGAKISFEVVDKCDDLNKVSEEIAKDIICWEQKACLSPRVVFLNDKIDVDEFSHCLSASLRKITEVIPKAYLSEWNSVKTIQDRQYCTLKYGMKNERRFKVYSSFNADYTVILSDGMPEKEDINKCFYRFIFVCPYSSKSDVVNYVSENLKDYLQTMGYSGNDEEFIEKMTLLGVSIVTKPGKMSLHEPGTSHDGIHNLKEFTFLVSRQI", "soluble on expression in E. coli": "not soluble"}, {"sequence": "MGSDKIHHHHHHMENQNHAFNYAYLLKQVKARVLLAQKKAIYTANEEMLSMYWDIGKLLSESQKQIGWGNNALEKLANDLKNDYPEMKGFSVRNCQFMIQFYNEYNQQLTNTKRAVSYLNNNEIVLPISKLGWSHNITLMQRTKDIKARYWYMIQCLKNGWSRDFLIEAIKQDYYHSHGALASNFDTTLPEIQAKQVKETLKDPYIFDMLTFTEEYDERDIELGLIKHIEKFLVEMGAGFAFMGRQYHIEVSEKDFYIDILMYNAFMHRYLVVELKRGEFQPEYIGKLNFYCSAVDDILCREGDNPTIGLLLCQNKDQIMAEYALRDVHKPIGISDYELGQALPKDIKSGLPSIEELENKLSRDLQDIDNKE", "soluble on expression in E. coli": "not soluble"}, {"sequence": "MKYKAVLVDFGNTLVGFKPVFYEKVYQVLKDNGYDLDLRKVFRAYAKAMGMINYPDEDGLEHVDPKDFLYILGIYPSERLVKELKEADIRDGEAFLYDDTLEFLEGLKSNGYKLALVSNASPRVKTLLEKFDLKKYFDALALSYEIKAVKPNPKIFGFALAKVGYPAVHVGDIYELDYIGAKRSYVDPILLDRYDFYPDVRDRVKNLREALQKIEEMNKE", "soluble on expression in E. coli": "soluble"}, {"sequence": "MTSHKRFCLSSRSPSYHTTELSLPLYIKFISWDFDCFQVDDVGFRPIFSAKTPNSPFTVEILRSGISGIVFDERETNTTANDGRMNFAMEYIIDKLLGDRCVPITVETLQISVDRVHYIFSKNLNMICKNLDVSIIETGVTLDTILHTSSYPLKSLSLSNTWAFAHPIILTAELLIVPTSDHFHRITNARVHAISLSGDFKLFIYEWLENGREIGTEFTIGGFRGRDYAKKMVCDIKEEFDERFQVVRRSHFPLSIAIKMNDFSEIYVFYDDIMERSKVYFKVQPTQF", "soluble on expression in E. coli": "not soluble"}, {"sequence": "MNQILNKLQHIKPIEIIIVADDRMSAIQSIPTFVECNVVVIEEKNKWKAPVHGAKVANGDVVLFLDGEDVIFSVELERFIEPLLKKEQDVILNNIDSVCFEKMRVEWPSIAMVYRKIVNDVLGRMDLKYDSMLSMPYAITKKAIKDIGYDILQNPILSQVTLIEKGWPLHSSSAITNTSLNNITSNNTSFYKNELTKLEVCEIKENVKALESWLQRKDDRGNYTDGGRKREVIEQLKKQKNYSLFHKGWGMNSSIYNGKQLSIIIPAQNEEATIKEVILEARKIEPKEIIVVINGSTDQTEAIAKQLGATVIVYEEALGHDVGRAIGAQEATGDILLFIDADFAIPAKDLHPLTKAVVDGVDIALNDLNLNLRFPLYIVNLYKYMLNIACNRKDLGVGSTIAVPHAISRKCLEGIGWDTLHTSCVAQVKAILEGYKVECVHFVDVMKPNRIRPQEHFATIGHPPAVLRITGDHLEGLSYLLKHRDFKDLF", "soluble on expression in E. coli": "not soluble"}, {"sequence": "GMVVNESMYQLGSVRSAIRELFEYGKKRAAIVGKENVYDFSIGNPSIPAPQIVNDTIKELVTDYDSVALHGYTSAQGDVETRAAIAEFLNNTHGTHFNADNLYMTMGAAASLSICFRALTSDAYDEFITIAPYFPEYKVFVNAAGARLVEVPADTEHFQIDFDALEERINAHTRGVIINSPNNPSGTVYSEETIKKLSDLLEKKSKEIGRPIFIIADEPYREIVYDGIKVPFVTKYYDNTLVCYSYSKSLSLPGERIGYVLVPDEVYDKAELYAAVCGAGRALGYVCAPSLFQKMIVKCQGATGDINAYKENRDLLYEGLTRIGYHCFKPDGAFYMFVKALEDDSNAFCEKAKEEDVLIVAADGFGCPGWVRISYCVDREMIKHSMPAFEKIYKKYNK", "soluble on expression in E. coli": "soluble"}, {"sequence": "MRAQDLPPLPETPGVYLWKRGEEVLYVGKAKSLRARVKSYFHAEGKARRIAEEATGLDFIATRDEVEALLLEANLIKAHRPLYNVLLKDDKHYPFLKLTNEPFPTLLVVRRVEEDGAKYYGPFPEAGALRRIKTLIDRLFPLRKNSGYPMKRRRYPCLNYSMGRCLAPCVGKADPEAYQEVVRQVEAVLEGRVDGLLQELEAKMREAARRLEFERAAEIRDQMEALRAFFSTDQQAFDPEMGDLDFLGMARSGALAVVQLYQVRSGRILGRISRVVEKEEATDEEILWAFLRDHYLEASPLPPLVLLPFPLEDLESLAELLKRRAGRKVELRVPKKGEKARLLELAERNARLALETELKLRERRGEHPALKALQDLLGLPARPWRLEGYDISHLQGQARVFSIAVFEGGRPKRQEYRRMRLKAGNDDYAAMEEGVFRRYTGSLKDLPLPDLLLIDGGVGQVRAAARALERAGLRLPLVGLAKGEEVLVTPEGRELRLPLTHPALQLLIHLRDEAHQNGLRYHRKRRSEELFRVLQGIPGIGEKRRRLLLERYGGLRALKEAPLEELARLPGMSLEAARALKAALAEEEPA", "soluble on expression in E. coli": "soluble"}, {"sequence": "MHHHHHHSSGRENLYFQGNFDYMFKLLIIGNSSVGKTSFLFRYADDTFTPAFVSTVGIDFKVKTVYRHEKRVKLQIWDTAGQERYRTITTAYYRGAMGFILMYDITNEESFNAVQDWATQIKTYSWDNAQVILVGNKCDMEEERVVPTEKGQLLAEQLGFDFFEASAKENISVRQAFERLVDAICDKMSDS", "soluble on expression in E. coli": "soluble"}, {"sequence": "MELTIMSQLIDRRQNAGKKSTVNRQRFLRRYKSQIKKAVSEAVGKRSITEIDQGEQITIPAKDIYEPQFHRGHGGHIERVLPGNDNFIAGDRIKRPGGGGAGGAGGNASDSGEGEDNFVFELSREEFLELYFEDLELPDLVKKELARISTYKTVRAGVTTSGIPNNINVLRSMKQATGRRVALASPYKKRLKEAEEELERLKQLANPDKIDLLKLERDIEFFKKKIQTVPFIDTIDLRYNHRVRVPSPSTQAVMFCVMDVSGSMDEAKKDIAKRFFILLYMFLTKNYEKIELVFIRHHTSAKEVNEEEFFYSRETGGTVVSSALELLNTIIEARYPPQAWNIYVAQASDGDNWNADSPYCQELLQEKIMPLLQYFAYIEIMPRHHQSLWEVYQQVKERYPNFAMENIDNVADIYPVFRELFKRKTVAAALEHHHHHH", "soluble on expression in E. coli": "not soluble"}, {"sequence": "MSLLTEQQRRELDWEKTDGLMPVIVQHAVSGEVLMLGYMNPEALDKTLESGKVTFFSRTKQRLWTKGETPGNFLNVVSIAPDCDNDTLLVLANPIGPTCHKGTSSCFGDTAHQWLFLYQLEQLLAERKSADPETSYTAKLYASGTKRIAQKVGEEGVETALAATVHDRFELTNEASDLMYHLLVLLQDQGLDLTPVIENLRKRHQEGHHHHHH", "soluble on expression in E. coli": "soluble"}, {"sequence": "MGSDKIHHHHHHMRATLAAAARDLNAAARFGADTACREGYHPVMLNTIIHGTPTDQPPLLIAHGLYGSGRNWGVIAKRLADERQVIAVDMRNHGLSPKTQSHSYVDLAEDLAEVIAAHGGRMDVVGHSMGGKAAMMLALRHPEAVNRLVVADIAPVSYQHTQAHFITAMRSVDLARVTRRSDAQEQLAAAGVDAMLQSFFTQSLDVENKSWRLNLDTLEREMPHILSFPEVETHWDGTALFLTGAHSDYVLPEHRPQIKRLFPAARFAKIPGAGHWLHAEKPREFEATVRGFLNA", "soluble on expression in E. coli": "not soluble"}, {"sequence": "NRRIVARLIGLGDSIDAIIKNDLSHPIVVDGNDEIGRLSEKLIEYGEKVQEIQRTNALSLINNTTASLITSDLNGVVESANLSARKLLKLGEVNESYPIWEYFPESCREQLKKVFDGSHLWIELGKIHVTLSLGDEKPKYVRFDIRPFAHGAEYKLIMTITDVTHQEMTTRTLESRVLEKTQDLLLKNQQLENEIEERIRTEDNLKKTQDELIQAAKMAVVGQTMTSLAHELNQPLNAMSTYLYSARMFLEQESPEKVGESITHIEGLATRMSKIINSLRQFARKPEGEREVKFVSVHEVAEQASTIVNTRAKRQQIIIENQLPDDVKVQGDMLALEQVFINVLVNSCDALMESTRDEQKRIQMALVERTSQTTLIAISDNGIGFGEEIVQRIFQPFVSTKEVGLGLGMNICKSLIEKHKGSIYLASSLEKGAMVVLELPNEQ", "soluble on expression in E. coli": "not soluble"}]}]}
